Experiment: yeast display, Sf9 membrane polyspecificity reagent, FACS + sequencing; frameworks hold sequencing errors
Procedure, shortened: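 Sorting gates, low and high (top ~1%), were placed on anti-HA fluorescence to track expression and on streptavidin fluorescence to track reagent binding. A clone's polyreactivity label is taken from the gate it came out of. The reagent was 10% biotinylated, detergent-solubilized Sf9 membrane, applied for 1 hour at 4 °C to galactose-induced yeast display cells.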
In the case of “QVQLVESGGGLVQAGGSHRLSCAASGSTFEIYAMGWYRQAPGKERELVAAISSGGSTNYADSVKGRFTISRDNAKNSVYLQMNSLKPEDTAVYYCVYAIQFDYWGQGTQVTVSS”, the “polyreactivity (PSR sort gate)” value is reported as “low polyreactivity”.
For “QVQLVESGGGLVQAGGSHRLSCAASGSTFEYYAMGWYRQAPGKERELVAAITTSGGITYYADSVKGRFTISRDNAKNTVYLQMNSLKPEDTAVYYCNADAVPFPTLVTYLYDYWGQGTQVTVSS”, the “polyreactivity (PSR sort gate)” value was “low polyreactivity”.
In the case of “QVQLVESGGGLVQAGGSHRLSCAASGSTFGSNAMGWYRQAPGKERELVAARTIGGSTNYADSVKGRFTISRDNAKNTVYLEMTSLKPEETAVYYCNADPQQSKLWTYFFGFPGYYWGQGTQVTVSS”, the “polyreactivity (PSR sort gate)” value is reported as “low polyreactivity”.
In the case of “QVQLVESGGGLVQAGGSHRLSCAASGSTFLINAMGWYRQAPGKERELVAAISRDGSTNYADSVKGRFTISRDNAKNTVYLQMNSLKPDDTAVYYCAADEQAYYVRRFDYWGEGTQVTVSS”, the “polyreactivity (PSR sort gate)” value is reported as “low polyreactivity”.
In the case of “QVQLVESGGGLVQAGGSHRLSCAASGSTFWGYTMRWYRQAPGKERELVAAITRSSGRTYYADSVKGRFTISRDNAKITVYLQMNSLKPEETAVYYCNAAAVGRRTWSPYDYWGQGTQVTVSS”, the “polyreactivity (PSR sort gate)” value is reported as “high polyreactivity”.
With “QVQLVESGGGLVQAGGSHRLSCAASGSTIAGNAMGWYRQAPGKERELVAVITRGGSTNYADSVKGRFTISRDNAKNTVYLQLNSLKPEDTAVYYCARYRFLLDYWGGGYYWGQGTQVTVSS” the “polyreactivity (PSR sort gate)” value was “high polyreactivity”.
For “QVQLVESGGGLVQAGGSHRLSCAASGYIFQWNAMGWYRQAPGKERELVATISRRGGSTYYADSVKGRFTISRDNAKNTVYLQMNSLKPEDTAVYYCNAVFGSYKDYGYWGQGTQVTVSS”, the “polyreactivity (PSR sort gate)” value was “low polyreactivity”.
For “QVQLVESGGGLVQAGGSHRLSCAATGFTFSYYSMGWYRQAPGKERELVAAITSSAGSTYYADTVKGRFTISRDNAKNTVYLQMNSLKPEDTAVYYCNAVYSKLNGGYDYWGQGTQVTVSS”, the “polyreactivity (PSR sort gate)” value was “low polyreactivity”.
In the case of “QVQLVESGGGLVQAGGSHRLSCASSGRTLLAYAMGWYIQAPGKEREFVDAISSRGVRTYYADSVKGRFTISRDNANNTVYLQMNSLKPEDTAVYYCASRGTKSIKDVPGIRYGYWGQGTQVTVSS”, the “polyreactivity (PSR sort gate)” value is reported as “high polyreactivity”.
In the case of “QVQLVESGGGLVQAGGSHRLSCSASGLTFSYYAMGGYRQEPGKERELVAAITRTGDRTYYADSVKGRFTISRDNAKNTVYLQMNSLKPEDTAVYYCAAKWRIVGSRQWYDYWGQGTQVTVSS”, the “polyreactivity (PSR sort gate)” value is reported as “high polyreactivity”.
In the case of “QVQLVESGGGLVQAGGSHRLSCSASGSIIFYYAMGWDRQAPGKEREFVAAITRSGVRTYYADSVKGRFTISRDNAKNTVYLQMNSLKPEDTAVYYCNADYGFYRPVLMGYWGQGTQVTVSS”, the “polyreactivity (PSR sort gate)” value is reported as “low polyreactivity”.
With “QVQLVESGGGLVQAGGSIRLICAASGFTFSRYAMGWYRQAPGKERELVAVISSSGSRTYYADSVKGRFTISRDNAKNTVYLQMNSLKPEDTAVYYCAAKSRPRYYGTEPFDSWGQGTQVTVSS” the “polyreactivity (PSR sort gate)” value was “high polyreactivity”.
For “QVQLVESGGGLVQAGGSIRLSCAASGFIFRGNAMGWYRQAPGKERELVARISGSGDSTYYADSVKGRFTISRDNAKNTVYFQMNSQKPEATEVYDCNADVFPGVEAYDSTIEYYSWGQGTQVTVSS”, the “polyreactivity (PSR sort gate)” value was “low polyreactivity”.
For “QVQLVESGGGLVQAGGSIRLSCAASGITFTLYAMGWYRQAPGKEMELVAAITISAGSTYYADSVKGRFTISRDNAKNTVYLQINSLKPEDTAVYYCAAESYGSWYYYWGQGTQVTVSS”, the “polyreactivity (PSR sort gate)” value was “high polyreactivity”.
In the case of “QVQLVESGGGLVQAGGSIRLSCAASGITFVGNAMGWYRQAPGKERELVASISSGASTNYADSVKGRFTISRDNAKNTVYLQMNSLKPEDTAVYYCAAEGSLEGWDFDSWGQGTQVTVSS”, the “polyreactivity (PSR sort gate)” value is reported as “low polyreactivity”.
With “QVQLVESGGGLVQAGGSIRLSCAASGLIFRYYTMGWYRQAPGKERELVATITKSGSSTYYADSVKGRFTISRDNAKNTVYLQMNSLKPEDTAVYYCAARVTRRYDYWGQGTQLTVSS” the “polyreactivity (PSR sort gate)” value was “high polyreactivity”.
In the case of “QVQLVESGGGLVQAGGSIRLSCAASGNIFVSYAMGWYRQAPAKERELVAAISKSGGSTYYADSVKGRFTISRDNAKNTVYLQMNSLKPEDTAVYYCAARWYNRVKYQKYNYWGQGTQVTVSS”, the “polyreactivity (PSR sort gate)” value is reported as “high polyreactivity”.
For “QVQLVESGGGLVQAGGSIRLSCAASGRIFYPYAMGWYRPAPGKDRELVAAIRRSGVDTYYADSVKGRFTISRDNAKQTVYLQMNSLKPEDTAVYYCAADPYWFFAHYDSWGQGTQVTVSS”, the “polyreactivity (PSR sort gate)” value was “low polyreactivity”.
With “QVQLVESGGGLVQAGGSIRLSCAASGRISTYYTMGWYRQAPGKERELVAAISWSGTSTYYADSVKGRFTISRDNAKNTVYLQMNSLKPEDTAVYYCNARWRYPLDSVTDDYWGQGTQVTVSS” the “polyreactivity (PSR sort gate)” value was “high polyreactivity”.
For “QVQLVESGGGLVQAGGSIRLSCAASGSIFGSNAMGWYRQAPGKERELVDAISGSGGSTNYADSVKGRFTISRDNAKNTVYLQMNSLKAEDTAVYYCAVPSKATGSASTSSGIFDSWGQGTQVTVSS”, the “polyreactivity (PSR sort gate)” value was “low polyreactivity”.
For “QVQLVESGGGLVQAGGSIRLSCAASGSIFRPYVMGWSRPAPGKERELVAAISSRGGDTYYADYVKGRFTISRDYAKNTVNVQMISLKPEDTAVYYCNARYYTSYDYWGQGSQVTVSS”, the “polyreactivity (PSR sort gate)” value was “low polyreactivity”.
With “QVQLVESGGGLVQAGGSIRLSCAASGSTFAKNAMGWYRQAPGKERELVAAISRGGNTYYADSGKGRFTISRDNAKNTVYLQMNSLKPEDTAVYYCSKLPFTRTYLGSLYDYWGQGTQVTVSS” the “polyreactivity (PSR sort gate)” value was “high polyreactivity”.
In the case of “QVQLVESGGGLVQAGGSIRLSCAASGSTFDPYAMGWYRQAPGKEREVVAAISGSRGGSTNYADSVKGRFTISRDNAKNTVYLQMNSLKQEDTAVFYCNARFSYRNGHYYRYYYGGQGTQVTVSS”, the “polyreactivity (PSR sort gate)” value is reported as “high polyreactivity”.
In the case of “QVQLVESGGGLVQAGGSIRLSCAASGSTFDYYAMGWYRQAPGKDRELVAAITTSGSSTFYADSVKGRFTIARDNAKNTVYVQMNSLKPEDTADYYCAAVFRWARQRWLDYWGQGTQVTVSS”, the “polyreactivity (PSR sort gate)” value is reported as “high polyreactivity”.
With “QVQLVESGGGLVQAGGSIRLSCAASGSTFLIKAMGWYRQAPGKERELDASINRRGTSTFYADSVKARFTISRDNAKNTVYLQMNSLKPDDTAVYYCNAYPGAAIRSTGRYDYWGQGTQVTVSS” the “polyreactivity (PSR sort gate)” value was “low polyreactivity”.
With “QVQLVESGGGLVQAGGSIRLSCAASGSTFRGYSMGWYRQAPGKERELVAAISSRGARTHYADSVKGRFTISRDNSKNTVYLQMNCLKPEDTAVYDCAKVWVRSGRRKMDYWGQGTQVTVSS” the “polyreactivity (PSR sort gate)” value was “low polyreactivity”.
With “QVQLVESGGGLVQAGGSIRLSCAASGSTFVWNAMGWYRQAPGKERELVAAISSSGGSTYYADSVKGRFTISRDNAKNTVYLQMNSLKPEDTAVYYCAAYYGRRRFGYWGQGTQVTVSS” the “polyreactivity (PSR sort gate)” value was “high polyreactivity”.
In the case of “QVQLVESGGGLVQAGGSIRLSCAASGYILGRYAMGWYRQAPGKERELVAAITSGGSTYYADSVKGRFTISRDNAKNSVSLQMNSLKPEDTAVYYCAAYTRYWSYGYWGQGTQVTVSS”, the “polyreactivity (PSR sort gate)” value is reported as “high polyreactivity”.
With “QVQLVESGGGLVQAGGSIRLSCAASVSIQTRNAMGWYRQAPGKERELVAAISRGGSTTYADSVKGRFTISRDNAKNTVYLQMNSLKPEDTAVYYCAASDYYVLSRRTRMDYWGQGTQVTVAS” the “polyreactivity (PSR sort gate)” value was “high polyreactivity”.
In the case of “QVQLVESGGGLVQAGGSIRLSCADSGIIFQANAMGWYRQAPRKERELVAGISRGSSTNYADSVKGRFTISLDNAKNTVYLQMNSLKPEDTAVYYCSAGFYYRPFYGSSHSYGYWGQGTQVTVSS”, the “polyreactivity (PSR sort gate)” value is reported as “low polyreactivity”.
For “QVQLVESGGGLVQAGGSIRLSCASSGSTFTIYAMGWYRPAPGKERELVAAISGTGGTKYADSVKGRFTISRDNAKNTVYLQMNSLKPEDTAVYYCAVGLVPLRDGWHFYYEFDSWGQGTQVTVSS”, the “polyreactivity (PSR sort gate)” value was “low polyreactivity”.
